B1: CXCL11 (natural protein, human, UniProt O14625 22-94, looked up)
chain: FPMFKRGRCLCIGPGVKAVKVADIEKASIMYPSNNCDKIEVIITLKENKGQRCLNPKSKQARLIIKKVERKNF
notes: human chemokine CXCL11, untagged recombinant protein; source: bought: Peprotech, recombinant, produced in Escherichia coli
B2: CXCL9 (natural protein, human, UniProt Q07325 23-125, looked up)
chain: TPVVRKGRCSCISTNQGTIHLQSLKDLKQFAPSPSCEKIEIIATLKNGVQTCLNPDSADVKELIKKWEKQVSQKKKQKNGKKHQKKKVLKVRKSQRSRQKKTT
notes: human chemokine CXCL9, untagged recombinant protein; source: bought: Peprotech, recombinant, produced in Escherichia coli

Biological target: the molecule itself
Experiment: cross-linking; 50 ng chemokine in 20 mM HEPES, 30 min at room temperature without or with phospholipid (brain PE, PC, PS or heart CL; 1:8 chemokine:total lipid molar ratio), then 0.25 mM BS3 for 30 min; SDS-PAGE and immunoblot with anti-chemokine antibodies

Protein | binding result
B1 | binds
B2 | binds
